Measured values as given in US20230287125A1 (LEPU BIOPHARMA, published 2023).

What was measured:
[1] = target: PD-L1 on PD-L1 target cells (Homo sapiens (Human)) (UniProt Q9NZQ7); test: cell-based or functional assay
human PD-L1-Fc protein [2] = target: T1, human PD-L1-Fc protein (human, UniProt Q9NZQ7 19-238); test: ELISA, antibody titrated on coated human PD-L1-Fc, OD 450nm; upper right panel
T1 construct: coating antigen of the ELISAs; also called rhPD-L1-Fc; not shown: Fc
Description: (§1) To evaluate antigen binding activity, the humanized antibodies were subjected to ELISA test. Briefly, microtiter plates were coated with human PD-L1-Fc protein at 0.5 μg/ml in PBS, 100 μl/well at 4° C. overnight, then blocked with 200 μl/well of 1% BSA. Three-fold dilutions of humanized antibodies starting from 10 μg/ml were added to each well and incubated for 1 hour at 37° C. The plates were washed with PBS/Tween and then incubated with mouse-anti-human IgG Fab antibody conjugated with Horse Radish Peroxidase (HRP) for 1 hour at 37° C. After washing, the plates were developed with TMB substrate and analyzed by spectrophotometer at OD 450 nm.

human PD-L1-Fc protein [3] = target: T1, human PD-L1-Fc protein; test: receptor blocking ELISA: coated human PD-L1-Fc, blocked ligand biotin-labeled human CD80-Fc (Bio-CD80), OD 450nm; upper right panel
Description: (§2) Briefly, microtiter plates were coated with human PD-L1-Fc protein at 0.5 μg/ml in PBS, 100 μl/well at 4° C. overnight, then blocked with 150 μl/well of 1% BSA at 37° C. for 2 hours. […] The plates were washed with PBS/Tween and then incubated with Streptavidin-HRP for 10 mins at 37° C. After washing, the plates were developed with TMB substrate and analyzed by spectrophotometer at OD 450 nm.

human PD-L1-Fc protein [4] = target: T1, human PD-L1-Fc protein; test: receptor blocking ELISA: coated human PD-L1-Fc, blocked ligand biotin-labeled human PD-1-Fc (Bio-PD1), OD 450nm; upper right panel
Description: as §2

[5] = target: T2, human PD-L1-his tag protein (human, UniProt Q9NZQ7 19-238); test: SPR (Biacore T200), mAb captured on Protein A chip, PD-L1-his injected
T2 construct: also called human PD-L1-His protein; recombinant PD-L1 protein; not shown: his tag
T2 sequence (Q9NZQ7 19-238 limits assumed): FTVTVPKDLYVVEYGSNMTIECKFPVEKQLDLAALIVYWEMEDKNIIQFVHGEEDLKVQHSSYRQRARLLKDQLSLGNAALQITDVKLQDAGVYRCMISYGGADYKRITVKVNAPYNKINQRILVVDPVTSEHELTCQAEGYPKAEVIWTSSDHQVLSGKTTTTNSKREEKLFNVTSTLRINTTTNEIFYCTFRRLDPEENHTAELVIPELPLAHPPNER
Description: The binding of the humanized antibodies to recombinant PD-L1 protein (human PD-L1-his tag) was tested by Biacore using a capture method. […] A serial dilution of human PD-L1-his tag protein was injected over captured antibody for 2 mins at a flow rate of 30 μl/min. The antigen was allowed to dissociate for 1500 s. All the experiment were carried out on a Biacore T200.

[6] = target: T2, human PD-L1-his tag protein; test: SPR (Biacore), affinity ranking, PDL1-His
[7] = target: T3, human PD-L1 over-expressed on CHOK1 cells (human, UniProt Q9NZQ7 19-290); test: flow cytometry (MFI) on PDL1-CHOK1 cells; lower right panel
T3 construct: whole, on cells; also called PDL1-CHOK1 cells
T3 sequence (Q9NZQ7 19-290): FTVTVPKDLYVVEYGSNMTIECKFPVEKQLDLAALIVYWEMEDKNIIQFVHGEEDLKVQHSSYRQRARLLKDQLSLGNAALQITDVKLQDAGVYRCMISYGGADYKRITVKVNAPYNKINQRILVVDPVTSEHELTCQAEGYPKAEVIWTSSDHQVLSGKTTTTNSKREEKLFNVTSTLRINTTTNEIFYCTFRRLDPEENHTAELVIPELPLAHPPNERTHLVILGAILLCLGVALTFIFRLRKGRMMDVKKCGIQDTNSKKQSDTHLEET
Description: (§3) To evaluate the antigen binding property, the humanized antibodies were analyzed for their binding to PD-L1 overexpressed on mammalian cells by FACS. Briefly, PDL1-CHOK1 cells were firstly incubated with 3-fold serious diluted humanized antibodies starting at 15 μg/ml at 4° C. for 40 mins. After washed by PBS, the Alexa Fluor® 647 AffiniPure Goat Anti-Human IgG (H+L) antibody was added to each well and incubated at 4° C. for 30 mins. The MFI of Alexa Fluor® 647 was evaluated by FACSCanto.

human PD-L1-Fc protein [8] = target: T1, human PD-L1-Fc protein; test: receptor blocking ELISA: coated human PD-L1-Fc, blocked ligand biotin-labeled human CD80-Fc (Bio-CD80), OD 450nm; lower left panel
Description: as §2

human PD-L1-Fc protein [9] = target: T1, human PD-L1-Fc protein; test: receptor blocking ELISA: coated human PD-L1-Fc, blocked ligand biotin-labeled human PD-1-Fc (Bio-PD1), OD 450nm; lower left panel
Description: as §2

human PD-L1-Fc protein [10] = target: T1, human PD-L1-Fc protein; test: ELISA, antibody titrated on coated human PD-L1-Fc, OD 450nm; upper left panel
Description: as §1

human PD-L1-Fc protein [11] = target: T1, human PD-L1-Fc protein; test: receptor blocking ELISA: coated human PD-L1-Fc, blocked ligand biotin-labeled human CD80-Fc (Bio-CD80), OD 450nm; upper left panel
Description: as §2

human PD-L1-Fc protein [12] = target: T1, human PD-L1-Fc protein; test: receptor blocking ELISA: coated human PD-L1-Fc, blocked ligand biotin-labeled human PD-1-Fc (Bio-PD1), OD 450nm; upper left panel
Description: as §2

[13] = target: T3, human PD-L1 over-expressed on CHOK1 …; test: flow cytometry (MFI) on PDL1-CHOK1 cells; upper right panel
Description: as §3

[14] = target: T3, human PD-L1 over-expressed on CHOK1 …; test: flow cytometry (MFI) on PDL1-CHOK1 cells; upper left panel
Description: as §3

human PD-L1-Fc protein [15] = target: T1, human PD-L1-Fc protein; test: ELISA, antibody titrated on coated human PD-L1-Fc, OD 450nm; lower left panel
Description: as §1

T1 sequence (Q9NZQ7 19-238 limits assumed): as the sequence (Q9NZQ7 19-238 limits assumed) above
Chain of PD-L1 on PD-L1 target cells (Homo sapiens (Human)) (Q9NZQ7 19-290 limits assumed): as the sequence (Q9NZQ7 19-290) above

| Molecule | EC50, NFAT-RE-mediated luminescence, PD1 effector cells co-cultured with PD-L1 target cells [1] [nM] | EC50 (human PD-L1-Fc protein [2]) [µg/mL] | IC50 (human PD-L1-Fc protein [3]) [µg/mL] | IC50 (human PD-L1-Fc protein [4]) [µg/mL] | Kd [5] [nM] | koff [5] [s⁻¹] | kon [5] [M⁻¹ s⁻¹] | Kd [6] [nM] | koff [6] [s⁻¹] | kon [6] [M⁻¹ s⁻¹] | EC50 [7] [nM] | IC50 (human PD-L1-Fc protein [8]) [µg/mL] | IC50 (human PD-L1-Fc protein [9]) [µg/mL] | EC50 (human PD-L1-Fc protein [10]) [µg/mL] | IC50 (human PD-L1-Fc protein [11]) [µg/mL] | IC50 (human PD-L1-Fc protein [12]) [µg/mL] | EC50 [13] [nM] | EC50 [14] [nM] | EC50 (human PD-L1-Fc protein [15]) [µg/mL] |
| --- | --- | --- | --- | --- | --- | --- | --- | --- | --- | --- | --- | --- | --- | --- | --- | --- | --- | --- | --- |
| Hu89C10H8-7 (antibody, V domains shown, humanized) VH: EVQLVESGGGLVKPGGSLRLSCAASGFTFSNYWMTWIRQAPGKGLEWVASITNTGSSTFYPDSVKGRFTISRDNAKNSLYLQMNSLRAEDTAVYYCTRDTTIAPFDYWGQGTMVTVSS VL: DIQMTQSPSSLSASVGDRVTITCKASQNLNEYLNWYQQKPGKAPKRLIYKTNTLQAGIPSRFSGSGSGTDYTLTISSLQPEDFATYYCSQYNSGNTFGQGTKLEIK | – | 0.00705 | 0.285 | 0.114 | 0.0935 | 5.31e-05 | 568000 | 0.107 | 6.61e-05 | 615000 | 0.1 | – | – | – | – | – | – | – | – |
| Hu67F3G7-2 (antibody, V domains shown, humanized) VH: EVQLVQSGAEVKKPGASVKVSCKASGYTFTDFWVSWVRQAPGQGLEWMGEIYPNSGVSRYNEKFKGRVTMTVDKSISTAYMELSRLRSDDTAVYYCTKYFGYTYWFGYWGQGTLVTVSS VL: DIQMTQSPSSLSASVGDRVTITCRASKSVSTYMHWYQQKPGKAPKLLIYSASHLESGVPSRFSGSGSGTDFTLTISSLQPEDFATYYCQQSNELPVTFGGGTKVEIK | – | – | – | – | 0.0367 | 7.03e-05 | 1.92e+06 | 0.0379 | 9.75e-05 | 2.57e+06 | – | – | – | 0.0132 | 0.282 | 0.109 | 0.108 | – | – |
| Hu47C6A3-2 (antibody, V domains shown, humanized) VH: QVQLQESGPGLVKPSETLSLTCTVSGYSITSDYAWNWIRQPPGKGLEWIGYIIYSGSTSYNPSLKSRVTISRDTSKNQFSLKLSSVTAADTAVYYCARSTMIATNWFAYWGQGTLVTVSS VL: DIQMTQSPSSLSASVGDRVTITCKASQDVSLAVAWYQQKPGKAPKLLIYWASTRHTGVPSRFSGSGSGTDFTLTISSLQPEDFATYYCQQHYITPWTFGGGTKVEIK | – | 0.0117 | 0.165 | 0.0354 | 0.367 | 0.0009 | 2.45e+06 | – | – | – | – | – | – | – | – | – | – | 0.175 | – |
| Hu47C6A3-3 (antibody, V domains shown, humanized) VH: QVQLQESGPGLVKPSETLSLTCTVSGYSITSDYAWNWIRQPPGKGLEWMGYIIYSGSTSYNPSLKSRITISRDTSKNQFSLKLSSVTAADTAVYYCARSTMIATNWFAYWGQGTLVTVSS VL: DIQMTQSPSSLSASVGDRVTITCKASQDVSLAVAWYQQKPGKAPKLLIYWASTRHTGVPSRFSGSGSGTDFTLTISSLQPEDFATYYCQQHYITPWTFGGGTKVEIK | – | – | – | – | 0.444 | 0.000966 | 2.18e+06 | – | – | – | – | 0.163 | 0.029 | – | – | – | – | 0.188 | 0.015 |
| Hu47C6A3-1 (antibody, V domains shown, humanized) VH: QVQLQESGPGLVKPSETLSLTCTVSGYSITSDYAWNWIRQPPGKGLEWIGYIIYSGSTSYNPSLKSRVTISVDTSKNQFSLKLSSVTAADTAVYYCARSTMIATNWFAYWGQGTLVTVSS VL: DIQMTQSPSSLSASVGDRVTITCKASQDVSLAVAWYQQKPGKAPKLLIYWASTRHTGVPSRFSGSGSGTDFTLTISSLQPEDFATYYCQQHYITPWTFGGGTKVEIK | – | – | – | – | 0.48 | 0.000593 | 1.24e+06 | – | – | – | – | – | – | 0.00963 | 0.141 | 0.0349 | – | 0.291 | – |

Next, values leading:

| EC50, NFAT-RE-mediated luminescence, PD1 effector cells co-cultured with PD-L1 target cells [1] [nM] | EC50 (human PD-L1-Fc protein [2]) [µg/mL] | IC50 (human PD-L1-Fc protein [3]) [µg/mL] | IC50 (human PD-L1-Fc protein [4]) [µg/mL] | Kd [5] [nM] | koff [5] [s⁻¹] | kon [5] [M⁻¹ s⁻¹] | Kd [6] [nM] | koff [6] [s⁻¹] | kon [6] [M⁻¹ s⁻¹] | EC50 [7] [nM] | IC50 (human PD-L1-Fc protein [8]) [µg/mL] | IC50 (human PD-L1-Fc protein [9]) [µg/mL] | EC50 (human PD-L1-Fc protein [10]) [µg/mL] | IC50 (human PD-L1-Fc protein [11]) [µg/mL] | IC50 (human PD-L1-Fc protein [12]) [µg/mL] | EC50 [13] [nM] | EC50 [14] [nM] | EC50 (human PD-L1-Fc protein [15]) [µg/mL] | Molecule |
| --- | --- | --- | --- | --- | --- | --- | --- | --- | --- | --- | --- | --- | --- | --- | --- | --- | --- | --- | --- |
| 0.133 | – | – | – | – | – | – | – | – | – | – | – | – | – | – | – | – | – | – | MPDL3280A (Atezolizumab), Human IgG1 (N297A)-Fc (antibody) |
| – | 0.00878 | – | – | 0.0983 | 5.54e-05 | 564000 | 0.0961 | 6.73e-05 | 700000 | 0.151 | 0.275 | 0.11 | – | – | – | – | – | – | Hu89C10H8-11 (antibody, V domains shown, humanized) VH: EVQLVESGGGLVKPGGSLRLSCAASGFTFSNYWMTWIRQAPGKGLEWVASITNTGSSTFYPDSVKGRFTISRDNAKNSLYLQMNSLRAEDTAVYYCTRDTTIAPFDYWGQGTMVTVSS VL: DIQMTQSPSSLSASVGDRVTITCKASQNLNEYLNWYQQKPGKAPKRLIYKTNTLQAGIPSRFSGSGSGIDYTLTISSLQPEDFATYYCSQYNSGNTFGQGTKLEIK |
| – | – | – | – | 0.0962 | 5.41e-05 | 562000 | 0.0954 | 5.94e-05 | 623000 | 0.127 | – | – | 0.00683 | 0.353 | 0.111 | – | – | – | Hu89C10H8-4 (antibody, V domains shown, humanized) VH: EVQLVESGGGLVKPGGSLRLSCAASGFTFSNYWMTWIRQAPGKGLEWVASITNTGSSTFYPDSVKGRFTISRDNAKSSLYLQMNSLRAEDTAVYYCTRDTTIAPFDYWGQGTMVTVSS VL: DIQMTQSPSSLSASVGDRVTITCKASQNLNEYLNWYQQKPGKAPKRLIYKTNTLQAGVPSRFSGSGSGTDYTLTISSLQPEDFATYYCSQYNSGNTFGQGTKLEIK |
| – | – | 0.495 | 0.158 | 0.0371 | 7.74e-05 | 2.09e+06 | 0.0347 | 9.72e-05 | 2.8e+06 | – | – | – | 0.0232 | – | – | 0.167 | – | – | Hu67F3G7-3 (antibody, V domains shown, humanized) VH: EVQLVQSGAEVKKPGASVKVSCKASGYIFTDFWVSWVRQAPGQGLEWIGEIYPNSGVSRYNEKFKGRVTMTVDKSISTAYMELSRLRSDDTAVYYCTKYFGYTYWFGYWGQGTLVTVSS VL: DIQMTQSPSSLSASVGDRVTITCRASKSVSTYMHWYQQKPGKAPKLLIYSASHLESGVPSRFSGSGSGTDFTLTISSLQPEDFATYYCQQSNELPVTFGGGTKVEIK |
